Assay results taken from the nanobody polyreactivity screen of Harvey et al. (2022).

Assay: yeast display, Sf9 membrane polyspecificity reagent, FACS + sequencing; frameworks hold sequencing errors
Method in brief: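 Synthetic nanobody libraries on Saccharomyces cerevisiae BJ5465 were galactose-induced for 36–48 hours, stained 1 hour at 4 °C with 10% biotinylated, detergent-solubilized Sf9 membrane reagent and enriched on streptavidin microbeads. FACS then separated cells into low and high (top ~1%) gates by anti-HA (expression) and streptavidin (reagent binding) fluorescence. Genes were colony-PCR amplified, MiSeq 2 × 250 sequenced and CDR-length filtered. A clone's polyreactivity label is that of its gate of origin.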

Row | Sequence | polyreactivity (PSR sort gate)
1 | QVQLVESGGGLVQAGGSLRLSCAASGIIFSRYVMGWSRQAPGKERELVAAISGSGGSTYYADSVKGRFTISRDNAKNTVYLQMNSLKPEDTAVYYCAKRRSWSNRIYGYWGQGTQVTVSS | high polyreactivity
2 | QVKLVESGGGLVQAGGSLRLSCAASGSTFFIYTKGLYRQAPGKEREFVAAISWTGGRTYYADSVKGRFTISRDNAKNTVYLQMNSLKPEDTAVYYCAARYKYSSYDYWGQGTQVTVSS | high polyreactivity
3 | QVQLVESGGGLVQAGGSLRLSCAASGIIFGLNDMGWYRQAPGKERELVADITYSGGSTYYADSVKGRFTISRDNAKNTVYLQMNSLKPEDTAVYYCAADEVSFWGYIYDYWGQGTQVTVSS | high polyreactivity
4 | QVQLVESGGGLVQAGGSLRLSCAASGSISYYAMGWYRQAPGKERELVAAISSSGGSTYYADSVKGRFTISRDNAKNTVYLQMNSLKPEDTAVYYCAAYGRYGAHTGYGSWGQGTQVTVSS | high polyreactivity
5 | QVQLQESGGGLVQAGGSLRLSCAASGYIFPTAIMGWYLQATGKERKLVAAINPGSNTYYADSVKGRFTFSRDNAKNTVYLQMYSLKPEDAAVYYCAVSIWLEGTLDYWGQGTQVTVSS | low polyreactivity
6 | QVRLVESGGGLVQAGGSLRLSCAASGFIFWRNAMGWYRQAPGKERELVAAITSGGSTNYADSVKGRFTISRDNAKNTVYLQMNSLKPVDTAVYYCAARQWFSHRRWGGSRYDYWGQGTQVTVSS | low polyreactivity
7 | QVQLVESGGGLVQAGGSLRLSCAASGSTFSYNAMGWYRQAPGKERELVAGITGRGGSTYYADSEKGRFTISRDNAKNTVYLQMYSLKPEDTAVYYCAADARSYGYPDDFWGQGTQVTVSS | high polyreactivity
8 | QVQLVESGGGLVQAGGSLRISCAASGSTFYYYAMGWYRQAPGKEREFVAAITFRCGTTYYADSVKGRFTISRDYAKNTVYLQMNSLKREDTAVYYCDAKPPFRNYVRYDYWGQGTQVTVSS | high polyreactivity
9 | QVQLVESGGGLVQAGGSLRLSCAASGSTFTFNAMGWYRKAPGKERELVAAISGSDVTTYYADSVKGRFTISRDNAKNSVYLQMNSLKPEDTAVYYCAAESYVTTVTGPHTGDYWGQGTQVTVSS | low polyreactivity
10 | QVQLVESGGGLVQAGGSLRLSCAASGGIFTFNDMGWYRQAPGKERELVAAISRRGGSTYYADSVKGRFTISRDNAKNTVFLQMNSLKPEDTAVYYCAASSRRQRSEPYYYWGQGTQVTVSS | high polyreactivity
11 | QVQLVESGGGLVQAGGSLRLSCAASGRIFYANAMGWYRQAPGKERELVAAISSGGSTYYADSVKGRFTISRDNAKNTVYLQMNSLKPEDTAVYYCATDYQSTSVWGGHFVINPYDYWGQGTQVTVSS | low polyreactivity
12 | QVQLVESGGGLVQAGGSLRLSCAASGSIFSKNAMGWYRQAPGKERELVAAITWSGGRTYYADSVKGRFTISRDNAKNTVFLQMNSLKPEDTAVYYCAAVSRVRYYLQTYDSWGQGTQVTVSS | high polyreactivity
13 | QVQLVESGGGLVQAGGSLLLSCAASGRIFRYYAMGWYRQATGKERELVAGISWRGSSTYYADSVKGRFTISRDNATNTVYLQMNSLKPEDTAVYYCNRDQSYIPFTGGRFYYWGQGTQVTVSS | high polyreactivity
14 | QVQLVESGGGLVQAGGSLRLSCAASGRIFGQYAMAWYRHAPGKERELVAAITQRGGSTYYADSVKGRFTISRDNAKNTVYLQMNSLKPEDTAGYYCNKRYRFTGIRDPFDYWGQGTQVTVSS | low polyreactivity
15 | QVQLVESGGGLVQAGGSLRLSCAASGFIFDVYAMGWYRQAPGKERELVAAISSSGGRTYYADSVKGRFTISRDNAKNTVYLQMNSLKPEDTAVYYCAAKTHSRTKVYTADYWGQGTQVTVSS | high polyreactivity
16 | QVQLVESGGGLVQAGGSLRLSCAASGRIFGRYAMGWYRQAPGKERELVAAITSSGRTYYADSVKGRFTISRDNAKNTVYLQMNSLKPEDTAVYYCNAVARYTKYNYWGQGTQVTVSS | high polyreactivity
17 | QVQLVESGGGVGQAGGSLRLSCAASGLSCVDYAMGWYRQAPGKERELVAAISTTGGSTYYADSVKGRFTISRDNAKNTVYLQMKSLKPEDTAVYYCNARFVHHSWGTNYYWGQGTQVTVSS | high polyreactivity
18 | QVELVESGGGLVQAGGSLRLSCAASGLTFVSYAMGWYRQAPGKERELVAAISRSGGSTYYADSVKGRFTISLDNAKNTVYLQMNSLKPEDTAVYYCNAYSYVEFWAVYRYDYWGQGTQVTVSS | high polyreactivity
19 | QVQLVESGGGLVQAGGSLRLSCAASGITFSYYAMGWYRQAPGKERELVAAINSGGGSTYYADSVKGRFTISRDNAKNTVYLQMNSLKPEDTAVYYCAARYRSRYDYYYDRDYWGQGTQVTVSS | low polyreactivity
20 | QVQLQESGGGLVQAGGSLLSCAASGTISYYREMGWYRQSPGKERELVAGIGVGTITYYADSVKGRFTISRDNAKNTVYLQMNSLKPEDTAVYYCAAHIDGNDSNAYWGQGTQVTVSS | low polyreactivity
21 | QVQLVESGGGLVQAGGSLRLSCAASGSTFGYNAMGWYRQAPGKERELVARITSSGGSTYYADSVKGRFTISRDNAKNTVYLQMNSLKPEDTAVYYCAAGYLSGNYARYGYWGQGTQVTVSS | high polyreactivity
22 | QVQLVESGGGLVQAGGSLRLSCAASGMIFTLYAMGWNRQAPGKERELVAGIDASGGSTSYADSVKGRFTISRDNAKNTVYLQMNSLKPEDTAVYYCAARILPYGYDYWGQGTQVTVSS | low polyreactivity

Row | Sequence | polyreactivity (PSR sort gate)
23 | QVQLVESGGGLVQAGGSLRLSCAASGRIFRRYAMGWYRQAPGKERELVAAITSGGSTYADSVKGRFTISRDNAKNTVYLQMNSLKPEDTAVYYCAADDAQGFDYWGQGTQVTVSS | high polyreactivity
24 | QVQLVESGGGLVQAGGSLRLSCAASGRIFNKYTMGWYRQAPGKERELVAAIRGRGGSTYYADSVKGRFTISRDNAKNTVYLQMNSLKPEDTAVYYCAADSGPFYSKTPTRYGYWGQGTQVTVSS | high polyreactivity
25 | QVQLVESGGGLVQAGGSLRLSCAASGLTLSGNAMGWYRQAPGKETELVAAITGRGGSTTYADSVKGRFTISRDNAKTTVYLQMNSLKPEDTAVYYCAADHAWYSLFDYWGQGTQVTVSS | low polyreactivity
26 | QVQLVESGGGLVQAGGSLRLSCAASGRIFKWYAMGWYRQAPGKEREFVAGIRWGGGRTHYADSVKGRFTISRDNAKNTVYLQMNSLKPEDTAVYYCAATSIGRYKSRLDYWGQGTQVTVSS | high polyreactivity
27 | QVQRVESWGGLVQAGCRLRLSCAASGIFRRYAMGWYRQAPGKERELVAAISSSGGSTDYADSVKGRFTISRDNAKNTVYLLMNSLKPEDTAVYYCNAYDLHGWWSYAYDYWGQGTQVTVSS | high polyreactivity
28 | QVQLVESGGGLVQAGGILRLSCAASGRTYGGYAMGWYRQAPGKERELVASITSTGGTHYSDSVKGRFTISRDNAKNTVYLQMNSLKPEDTAVYYFAAGYYYWKYDYWGQGTQVTVSS | high polyreactivity
29 | QVQLVESGGGLVQAGGSLRLSCAASGSTMAPYAMGWYRQAPGTERELVASINWGGTTTYYADSVKGRFTISRDNAKNTVYLQMNSLKPEDTAVYYCAALGLRWGRSGYYYEYYYWGQGTQVTVSS | high polyreactivity
30 | QVQLVESGGGLVQAGGSLRLSCAASGRILVTYAMGWYRQAPGKERELVAAITRGTNTNYADSVKGRFTISRDNAKNTVYLQMNSLKPEDTAVYYCAARRYRYRYGYGGDYWGQGTQVTVSS | high polyreactivity
31 | QVQLQESGGGLVKAGGSLRLSCAASGNISPRDAMGWYRQAPGEERDLVASNPYSAITYYADGVKGRYTISRDNAKNTVYLQMNSLKPEDTEVYYCAVYQFTYAVFPAYWGQGSQVTVSS | low polyreactivity
32 | QVQLVESGGGLVQAGGSLRLSCAASGYTFEDNAMGWYRQAPRKESELVAAIDWSGDSTYYADSVKGRFTISRDNAKNTVYLQMNSLKPEDTAVYYCAADYTTWTDMDYWGQGTQVTVSS | low polyreactivity
33 | QVQLVESGGGLVQAGGSLRLSCDASGSTSPGYAMGWYRQAPGKERELVAAITFRGTRTYYADSVKGRFTISRDNAKNTVYLQINSLKPEDTAVYYCNVVGYGPNRGRVDYWGQGTQVTVSS | high polyreactivity
34 | QVQLVESGGGLVQAGGSLRLSCAASGITFYFYAMGWYRQAPGKERELVAAITSTGTSTYYADSVKGRFTISRDNAKNTVYLQMNSLKPEDSAVYYCAKDQHYPHYQPYWSRYDYWGQGTQVTVSS | low polyreactivity
35 | QVHLVDSGGGLVQAGASLRLSCSASGSIFYSYAMGWYRPAPGKEWELVAAIRRGGSTNYADSVKGRFTISRDNAKNTVYLQMNSLKPEDTAVYYCAAGRFTYAAQRYEYWGQGTQVTVSS | high polyreactivity
36 | QVQLVESGGGLVQAGGSLRLSCAASGSIFYWYAMGWYRQAPGKERELVATNRYRGGNTYYADSVKGRFTISRDNAMNTVYLQMNSLKAEDTAVYYADFVKFCKYYQRYDYWGQGTQVTVSS | high polyreactivity
37 | QVQLVESGGGLVQAGGSLRLSCAASGSTFHRYPMGWYRQAPGKERELVAAISVRTGSTYYADSVKGRFTISRDNAKNTDYLQINRLTPEDTAVYYCAVGKQINGKIYRYDYWGQGTQVTVSS | high polyreactivity
38 | QVQLVESGGGLVQAGGSLRLSCAASGRIFYGNAMGWYRQAPGKERELVATISSSGGRTTYADSVKGRFTISRDNAKNTVYLQMNSLKPEDTAVYYCADQGYWTGYDYWGQGTQVTVSS | high polyreactivity
39 | QVQLVESGGGLVQAGGSLRLSCAASGSTFAGYTLGWYRQAPGKERELVAAITSRGGRTYYADSVKGRFTISRDHAKNTVYLQMNSLKPEDTAVYYCAAVSRYYAALMYYWGQGTQVTVSS | high polyreactivity
40 | QVQLVESGGGLVQAGGSLRLSCAASGRSIAYYAMGWYRQAPGKERELVAAINWSGGRTYYADSVKGRFTLSRDNAKNTVYLQMNSLKPEETAVYYCNAVYNESRGSYQDDYWGQGTQVTVSS | high polyreactivity
41 | QVQLVESGGGLVQAGGSLRLSCAASGFTFYRYAMGWYRQAPGKERELVAAITWSGGATYYADSVKGRFTISRDNAKNTVYLQMNSLKPEDTAVYYCAADIYDGGFDYWGQGTQVTVSS | low polyreactivity
42 | QVQLVESGGGIVQAGGSLRLSCAASGRNFTFYAMGWYRQAPGKERELVAAITKSGGSTYYADSVKGRFTISRDNAKNTVYLQMNSLKPEDTAVYYCAAGNHRRPADYGSWGQGTQVTVSS | low polyreactivity
43 | QVQLVESGGGLVQAGGSLRLSCAASGSIFAYYAMGWYRQAPGKERELVAAISSGGGTYYADSVKGRFTISRDNAKNTVYLQMNSLKPEDTAVYYCARRYRAHYQYLYDYWGQGTQVSVSS | low polyreactivity
